Test results taken from publication PMC5050020, “The C9ORF72 GGGGCC expansion forms RNA G-quadruplex inclusions and sequesters hnRNP H to disrupt splicing in ALS brains”.

Target: T1, hnRNP H1 (recombinant) (UniProt P31943 1-449)
T1 sequence: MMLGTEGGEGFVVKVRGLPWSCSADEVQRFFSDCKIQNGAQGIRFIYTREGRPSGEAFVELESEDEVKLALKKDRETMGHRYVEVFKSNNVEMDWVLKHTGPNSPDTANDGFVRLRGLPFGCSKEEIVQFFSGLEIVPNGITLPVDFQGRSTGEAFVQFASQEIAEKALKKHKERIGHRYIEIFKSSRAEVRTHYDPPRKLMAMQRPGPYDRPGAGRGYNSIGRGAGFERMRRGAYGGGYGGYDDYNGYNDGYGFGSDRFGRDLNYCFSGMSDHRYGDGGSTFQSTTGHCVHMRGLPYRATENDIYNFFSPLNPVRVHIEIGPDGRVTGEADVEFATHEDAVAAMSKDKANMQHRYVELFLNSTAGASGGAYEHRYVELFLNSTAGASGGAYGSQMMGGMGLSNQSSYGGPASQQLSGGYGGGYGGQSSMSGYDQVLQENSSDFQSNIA
Assay: EMSA; 30 nM tRNA; EMSA: 50 mM Tris pH 8, 50 mM NaCl, 2 mM EDTA, 0.5% BSA, 0.2% CHAPS, 0.3 nM RNA, 30 nM tRNA, 0-640 nM H1, 30 min 37 C, native 6% PAGE. UV crosslinking: ~1 nM RNA in U87 nuclear extract
Conditions: protein: recombinant, (pRSET-C vector, Ni-NTA), label: 32P

Binder: GGGGCCGGGGCCGGGGCCGGGGCC (structured_RNA) [4R]
- Kd (G-quadruplex, can be intramolecular): 75.5 ± 14 nM

Binder: GGGGCCGGGGCCGGGGCCGGGGCC (ssRNA, all G replaced by 7-deaza-G (transcribed with 7-deaza-GTP)) [4R-7dG]
- Kd (G-quadruplex destabilized): 13.5 ± 3 nM
